# Results as given in the supplement of paper PMC11780869.
# Test system: Bacillus subtilis
# Experiment: cleaved RNA product abundance (RNA/gDNA barcode ratio) relative to median wild-type variant (ratio to wild type); higher = more accumulation of the downstream cleavage product
# Outline: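 Sequencing of barcodes from gel-selected, reverse-transcribed cleaved RNA and from genomic DNA, with UMI collapsing, yielded a per-construct RNA:gDNA ratio. Scaled to the median construct with the unmutated site, this ratio is the cleaved product abundance. The barcoded reporters (truncated aprE or tetM mRNAs with mutagenized RNase Y cleavage-site windows) were integrated into the B. subtilis chromosome, and cultures grew in LB at 37°C from OD600 0.0003 to 0.3.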
# [1] = experiment (reporter, strain, medium): exp 8a: truncated aprE reporter, strain BJT201 with 2% xylose (RNase J1 expressed), cleavage site: glnRA (positions -5 to +31 mutated)
# [2] = experiment (reporter, strain, medium): exp 2b: truncated aprE reporter, strain BJT200, cleavage site: cggR-gapA (positions -7 to +36 mutated)
# [3] = experiment (reporter, strain, medium): exp 4a: truncated aprE reporter, strain BJT201 with 2% xylose (RNase J1 expressed), cleavage site: cggR-gapA (positions -7 to +36 mutated)
# [4] = experiment (reporter, strain, medium): exp 6: tetM reporter, strain 168, cleavage site: cggR-gapA (positions -7 to +36 mutated)
sequence,measurement,setting,value
CGACATGTCCCGCTTCTTTCATTAATCCGTTACCAACTGTGTTGCTATATACATTTACCTTTTAAGAGGAGGAAT,cleaved RNA product abundance,[1],0.277
ACAGACGAAGGAGCCGCAGAGAAGTTATTAAGGGATGATTAATCCCTCAATATAAATATCTCTCACTTATTTAAA,cleaved RNA product abundance,[2],0.638
ACAGACGAAGGAGCCGCAAAGAAGTTATTAAGGGATGAATAAGCCTTCAATATAAATATCTCTCACTTATTTAAA,cleaved RNA product abundance,[3],0.171
ACAGACGAAGGAGCCGCAAAGAAGTTATTAAGGGATGAAAAATCCCTCAATAAAAATATCTCTCACTTATTTAAA,cleaved RNA product abundance,[3],0.217
ACAGACGAAGGAGCCGCAAAAAAGTTATTAAGGGATGAATAATCCCTCAATATACATATCTCTCACTTATTTAAA,cleaved RNA product abundance,[3],0.996
ACAGACGAAGGAGCCGCAAAGAATTTATTAAGGGAAGAATAATCCCTCAATATAAATATCTCTCACTTATTTAAA,cleaved RNA product abundance,[2],0.289
same,cleaved RNA product abundance,[3],0.518
ACAGACGAAGGAGCCGCAAAGAAGTTATTAAGGAAAGAATAATCCCTCAATATAAATATCTCTCACTTATTTAAA,cleaved RNA product abundance,[3],0.0978
ACAGACGAAGGAGCCGCAACGAAGTTATTAAGGGATGAATAATCCCTCAATATAAATATCTCTCACTTATTTAAA,cleaved RNA product abundance,[2],0.908
same,cleaved RNA product abundance,[3],0.915
same,cleaved RNA product abundance,[4],0.595
CGACATGTCCCGCTTCTTTCATTAATCAGTTATCAACTGTTTTGCTATATACATTTACCTTTTAAGAGGAGGAAT,cleaved RNA product abundance,[1],0.307
ACAGACGAAGGAGCCGCAAAGAAATTATTAAGGGATAAATAATCCATCAATATAAATATCTCTCACTTATTTAAA,cleaved RNA product abundance,[3],0.216
ACAGACGAAGGAGCCGCAAAGAAGTTATTAAGGGCTGAACAATCCCTCAATATAAATATCTCTCACTTATTTAAA,cleaved RNA product abundance,[3],0.156
ACAGACGAAGGAGCCGCAAAGAAGTTATTAATGAATGAATAATCCCTCAATATAAATATCTCTCACTTATTTAAA,cleaved RNA product abundance,[2],0.0941
same,cleaved RNA product abundance,[3],0.137
ACAGACGAAGGAGCCGCACAGAAGTTATTAAGGTATGAATAATCCCTCAATATAAATATCTCTCACTTATTTAAA,cleaved RNA product abundance,[2],0.102
same,cleaved RNA product abundance,[3],0.198
ACAGACGAAGGAGCCGCAAAGAAATTAGTAAGGGATGAATAATCCCTCAATATAAATATCTCTCACTTATTTAAA,cleaved RNA product abundance,[2],0.339
same,cleaved RNA product abundance,[3],0.34
ACAGACGAAGGAGCCGCAAAGAATTTATTAAGGGATGAATAATACCTCAATATAAATATCTCTCACTTATTTAAA,cleaved RNA product abundance,[2],0.105
same,cleaved RNA product abundance,[3],0.177
CGACATGTCCCGCTTCTTTCATTAATCCGTTAGCAACTGTTTTGATATATACACTTACCTTTTAAGAGGAGGAAT,cleaved RNA product abundance,[1],0.313
ACAGACGAAGGAGCCGCAAAGAAGTTATCAGGGGATGAATAATCCCTCAATATAAATATCTCTCACTTATTTAAA,cleaved RNA product abundance,[2],0.323
ACAGACGAAGGAGCCGCAAATAAGTTATTAAGGGATGTATAATCCCTCAATATAAATATCTCTCACTTATTTAAA,cleaved RNA product abundance,[3],0.901
ACAGACGAAGGAGCCGCAAAGAAGTCATTAAGGGATGATTAATCCCTCAATATAAATATCTCTCACTTATTTAAA,cleaved RNA product abundance,[3],0.217
ACAGACGAAGGAGCCGCTAAGAAGTTATTAAGGGATGAATAATCCTTCAATATAAATATCTCTCACTTATTTAAA,cleaved RNA product abundance,[2],0.434
same,cleaved RNA product abundance,[3],0.597
ACAGACGAAGGAGCCGCAAAGAAGTTATTAAGGGATGAATCATCCCTCAATATAAATATCTCTCACTTATTTAAA,cleaved RNA product abundance,[2],0.721
same,cleaved RNA product abundance,[3],0.902
same,cleaved RNA product abundance,[4],0.917
ACAGACGAAGGAGCCGCTAAGAAGTTATTAAGGTATGAATAATCCCTCAATATAAATATCTCTCACTTATTTAAA,cleaved RNA product abundance,[2],0.114
same,cleaved RNA product abundance,[3],0.296
CGACATGTCCCGCTTCTTTCATTAATCCGTTAGCAACGGTTTTGTTATATACATTTACCTTTTAAGAGGAGGAAT,cleaved RNA product abundance,[1],0.364
CGACATGTCCCGCTTCTTTCATTAATCCGTTAGAAACTCTTTTGCTATATACATTTACCTTTTAAGAGGAGGAAT,cleaved RNA product abundance,[1],0.377
CGACATGTCCCGCTTCTTTCATTAATCCGTTAGCAACTGATTTTCTATATACATTTACCTTTTAAGAGGAGGAAT,cleaved RNA product abundance,[1],0.689
ACAGACGAAGGAGCCGCAAAGAATTTATTAAGGGATCAATAATCCCTCAATATAAATATCTCTCACTTATTTAAA,cleaved RNA product abundance,[3],0.73
ACAGACGAAGGAGCCGCCAAGAAGTTATTAAGGGATGAATAATCCCTCAATATAAATATCTCTCACTTATTTAAA,cleaved RNA product abundance,[2],0.985
same,cleaved RNA product abundance,[3],0.872
ACAGACGAAGGAGCCGCAAAGAAGTTATTAAGGGATTAATAATCCCTCTATATAAATATCTCTCACTTATTTAAA,cleaved RNA product abundance,[3],0.547
ACAGACGAAGGAGCCGCAAATATGTTATTAAGGGATGAATAATCCCTCAATATAAATATCTCTCACTTATTTAAA,cleaved RNA product abundance,[3],1.1
ACAGACGAAGGAGCCGCACAGAACTTATTAAGGGATGAATAATCCCTCAATATAAATATCTCTCACTTATTTAAA,cleaved RNA product abundance,[3],0.558
CGACATGTCCCGCTTCTTTCATTAATCCGTTACCAACAGTTTTGCTATATACATTTACCTTTTAAGAGGAGGAAT,cleaved RNA product abundance,[1],0.215
CGACATGTCCCGCTTCTTTCATTAACCCGTTAGCAAGTGTTTTGCTATATACATTTACCTTTTAAGAGGAGGAAT,cleaved RNA product abundance,[1],0.522
ACAGACGAAGGAGCCGCAAAGAAGTTATTAAGGGATCAATAATCCTTCAATATAAATATCTCTCACTTATTTAAA,cleaved RNA product abundance,[3],0.353
CGACATGTCCCGCTTCTTTCATTAATCCGTTAGCAAATGTTTTGCTATATACATTCACCTTTTAAGAGGAGGAAT,cleaved RNA product abundance,[1],1.09
ACAGACGAAGGAGCCGCACAGAAGATATTAAGGGATGAATAATCCCTCAATATAAATATCTCTCACTTATTTAAA,cleaved RNA product abundance,[3],0.364
CGACATGTCCCGCTTCTTTCATTAATCCGTTAGCAACTGTTTTTCTATATACATTTAACTTTTAAGAGGAGGAAT,cleaved RNA product abundance,[1],0.675
ACAGACGAAGGAGCCGCAAAGAAGTTATTAAGGGATGAATAATCCCGCAATATAAATATCTCTCACTTATTTAAA,cleaved RNA product abundance,[2],0.194
same,cleaved RNA product abundance,[3],0.244
same,cleaved RNA product abundance,[4],0.252
ACAGACGAAGGAGCCGCAAAGAAGTTATTAAGTGACGAATAATCCCTCAATATAAATATCTCTCACTTATTTAAA,cleaved RNA product abundance,[3],0.0518
ACAGACGAAGGAGCCGCAAAGAAATTATTAAGGAATGAATAATCCCTCAATATAAATATCTCTCACTTATTTAAA,cleaved RNA product abundance,[2],0.101
same,cleaved RNA product abundance,[3],0.191
same,cleaved RNA product abundance,[4],0.104
ACAGACGAAGGAGCCGCAAAGACGTTATTAAGGGATAAATAATCCCTCAATATAAATATCTCTCACTTATTTAAA,cleaved RNA product abundance,[3],1.2
CGACATGTCCCGCTTCTTTCATTAATCCTTGAGCAACTGTTTTGCTATATACATTTACCTTTTAAGAGGAGGAAT,cleaved RNA product abundance,[1],0.57
ACAGACGAAGGAGCCGCAAAGAAGTTATTAAGAGGTGAATAATCCCTCAATATAAATATCTCTCACTTATTTAAA,cleaved RNA product abundance,[3],0.253
ACAGACGAAGGAGCCGCAAAGAAGTTATTAAGCGATGACTAATCCCTCAATATAAATATCTCTCACTTATTTAAA,cleaved RNA product abundance,[3],0.0948
ACAGACGAAGGAGCCGCAAAGATGTTATTAAGGGAAGAATAATCCCTCAATATAAATATCTCTCACTTATTTAAA,cleaved RNA product abundance,[3],0.51
ACAGACGAAGGAGCCGCAAAGAAGTTATTAAAGGATGGATAATCCCTCAATATAAATATCTCTCACTTATTTAAA,cleaved RNA product abundance,[3],0.141
CGACATGTCCCGCTTCTTTCATTATTCCGTTAGCAACTGTTTTGCTATATACAGTTACCTTTTAAGAGGAGGAAT,cleaved RNA product abundance,[1],0.649
ACAGACGAAGGAGCCGCAAACAAGTTATTAAGCGATGAATAATCCCTCAATATAAATATCTCTCACTTATTTAAA,cleaved RNA product abundance,[2],0.0729
same,cleaved RNA product abundance,[3],0.0647
CGACATGTCCCGCTTCTTTCATTATTACGTTAGCAACTGTTTTGCTATATACATTTACCTTTTAAGAGGAGGAAT,cleaved RNA product abundance,[1],1.27
ACAGACGAAGGAGCCGCATAGAAGTTATTAAGGGATGAATAATCACTCAATATAAATATCTCTCACTTATTTAAA,cleaved RNA product abundance,[2],0.134
same,cleaved RNA product abundance,[3],0.166
ACAGACGAAGGAGCCGCAAAGAAGTTATTAAGGGATGAATAATCCCTTATTATAAATATCTCTCACTTATTTAAA,cleaved RNA product abundance,[3],0.813
CGACATGTCCCGCTTCTTTCATTAATCCGTTAGAAACTATTTTGCTATATACATTTACCTTTTAAGAGGAGGAAT,cleaved RNA product abundance,[1],0.339
ACAGACGAAGGAGCCGCAAAGAAGTGATTAAGGGATGAATAGTCCCTCAATATAAATATCTCTCACTTATTTAAA,cleaved RNA product abundance,[2],0.184
same,cleaved RNA product abundance,[3],0.274
ACAGACGAAGGAGCCGCAAAGAAGTTATTAAGGGAAGAATAATCCCTCAATATAAAAATCTCTCACTTATTTAAA,cleaved RNA product abundance,[3],0.563
ACAGACGAAGGAGCCGCAAAGGAGTTATTAAGGGATGAATAATCCCTCAATATAAATATCTCTCACTTATTTAAA,cleaved RNA product abundance,[2],1.06
same,cleaved RNA product abundance,[3],0.982
same,cleaved RNA product abundance,[4],0.911
ACAGACGAAGGAGCCGCAAAGAAGTTATTAACGGATGAATAATTCCTCAATATAAATATCTCTCACTTATTTAAA,cleaved RNA product abundance,[3],0.152
ACAGACGAAGGAGCCGCAAAGAAGTTATTAAGGGATGAATATTCCCTCCATATAAATATCTCTCACTTATTTAAA,cleaved RNA product abundance,[3],0.193
ACAGACGAAGGAGCCGCAAAGAAGTTTTTAAGGGATGAATAAACCCTCAATATAAATATCTCTCACTTATTTAAA,cleaved RNA product abundance,[3],0.17
CGACATGTCCCGCTTCTTTCATTAATCCGTTACCAACTGTTTTGCTATATACGTTTACCTTTTAAGAGGAGGAAT,cleaved RNA product abundance,[1],0.253
ACAGACGAAGGAGCCGCAAAGAAGTAATTAAGGGATGAATAATCCATCAATATAAATATCTCTCACTTATTTAAA,cleaved RNA product abundance,[2],0.148
same,cleaved RNA product abundance,[3],0.183
